Measured values as given in article PMC4374754.

Key:
[1] = molecular target: RecA D112R, fluorescein-labelled (E. coli); assay: fluorescence polarisation; 20 nM fluorescein-labelled RecA titrated with pol V in solution, no ssDNA (inactive complex); pol V standard reaction buffer (20 mM Tris pH 7.5, 8 mM MgCl2, 5 mM DTT, 0.1 mM EDTA, 25 mM sodium glutamate, 4% glycerol), 25°C; apparent Kd, one-site specific binding
[2] = molecular target: RecA D112R N113R, fluorescein-labelled (E. coli); assay: as above

- primer utilization in the pol V transactivation assay (RecA* on poly dT, hairpin primer-template, 1 h at 37°C) (RecA D112R (E. coli)): 27%
- Kd [1]: 250 nM
- Kd [2]: 250 nM
B1: DNA polymerase V (UmuD′2C) (complex)
chain 1: MFALCDVNAFYASCETVFRPDLWGKPVVVLSNNDGCVIARNAEAKALGVKMGDPWFKQKDLFRRCGVVCFSSNYELYADMSNRVMSTLEELSPRVEIYSIDEAFCDLTGVRNCRDLTDFGREIRATVLQRTHLTVGVGIAQTKTLAKLANHAAKKWQRQTGGVVDLSNLERQRKLMSALPVDDVWGIGRRISKKLDAMGIKTVLDLADTDIRFIRKHFNVVLERTVRELRGEPCLQLEEFAPTKQEIICSRSFGERITDYPSMRQAICSYAARAAEKLRSEHQYCRFISTFIKTSPFALNEPYYGNSASVKLLTPTQDSRDIINAATRSLDAIWQAGHRYQKAGVMLGDFFSQGVAQLNLFDDNAPRPGSEQLMTVMDTLNAKEGRGTLYFAGQGIQQQWQMKRAMLSPRYTTRSSDLLRVK
chain 2: GFPSPAADYVEQRIDLNQLLIQHPSATYFVKASGDSMIDGGISDGDLLIVDSAITASHGDIVIAAVDGEFTVKKLQLRPTVQLIPMNSAYSPITISSEDTLDVFGVVIHVVKAMR
